The target in this experiment is T1, human claudin-4 (full-length), wild type (human, UniProt O14493 1-209).
T1 construct: also called claudin-4 wild type; WT
T1 sequence (looked up): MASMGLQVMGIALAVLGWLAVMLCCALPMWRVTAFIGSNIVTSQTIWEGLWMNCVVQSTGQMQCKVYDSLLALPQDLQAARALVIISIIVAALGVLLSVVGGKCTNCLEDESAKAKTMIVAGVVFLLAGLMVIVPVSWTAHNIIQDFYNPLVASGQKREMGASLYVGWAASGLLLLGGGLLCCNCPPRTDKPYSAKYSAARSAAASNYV
Description: pull-down. The following applies: both partners purified.

B1: glutathione-S-transferase-tagged C-CPE (residues 185′–319′), wild type (domain or fragment)
chain: RCVLTVPSTDIEKEILDLAAATERLNLTDALNSNPAGNLYDWRSSNSYPWTQKLNLHLTITATGQKYRILASKIVDFNIYSNNFNNLVKLEQSLGDGVKDHYVDISLDAGQYVLVMKANSSYSGNYPYSILFQKF
On to B1, for which the binding result is “binds”.

The values above are taken from paper PMC5028891 (Scientific Reports, 2016).
